Data: patent publication CN106928350A (TIANJIN INST IND BIOTECHNOLOGY CAS; SUZHOU GENEWIZ …, dated 2017)

How the values were obtained:
[1] = target: T1, HA of H4 (A/duck/Czech/1956)/PR8 H4N1 (PR8-RS) (Influenza A virus A/duck/Czech/1956 (H4), UniProt P19696 17-564); assay: immunofluorescence on virus-infected MDCK cells, antibody 40μg/mL
T1 construct: whole, on cells

[2] = target: T2, HA of A/PuertoRico/8/1934 H1N1 (Influenza A virus A/PuertoRico/8/1934 …, UniProt P03452 18-565); assay: immunofluorescence on virus-infected MDCK cells
T2 construct: whole, on cells; also called PR8

B1: AF4H1K1 (antibody, V domains shown)
VH: QVQLVESGGGVVQPGTSLRLSCEASGFTSSAYAMHWVRQAPGKGLEWVAVITFDGGYQYYADSVKGRFTISRDISRNTLHLHMNSLRAEDTAVYYCARDPLTKLLPFDWVSGGYFDYWGQGTLVTVSS
VL: not shown
notes: also called AF4H1K1 IgG; AF4H1K1IgG
binding result [1]: binds
binding result [2]: no binding (tested: 40μg/mL)
